Test results as given in publication PMC5658604.

Tests used:
[1] = molecular target: T1, TtSmtB (Thermus thermophilus HB27) (UniProt Q72KG0); experiment: EMSA; details: EMSA as in Fiorentino et al., 2007 (buffer not given here), 0-15 uM protein, 1 nM probe in the competition assay; footprinting in binding buffer, DNase I 1 min …
T1 sequence: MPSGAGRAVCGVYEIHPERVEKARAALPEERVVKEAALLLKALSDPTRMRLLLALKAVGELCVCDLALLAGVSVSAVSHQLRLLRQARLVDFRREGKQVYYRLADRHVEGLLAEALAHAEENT

[2] = molecular target: T1, TtSmtB (Thermus thermophilus HB27); experiment: competition; details: EMSA as in Fiorentino et al., 2007 (buffer not given here), 0-15 uM protein, 1 nM probe in the competition assay; footprinting in binding buffer, DNase I 1 min …
[3] = molecular target: T1, TtSmtB (Thermus thermophilus HB27); experiment: DNase I footprinting; details: EMSA as in Fiorentino et al., 2007 (buffer not given here), 0-15 uM protein, 1 nM probe in the competition assay, DNase I 1 min …
[4] = tested on: TtSmtB (Thermus thermophilus HB27); experiment: EMSA; details: cooperative, EMSA as in Fiorentino et al., 2007 (buffer not given here), 0-15 uM protein, 1 nM probe in the competition assay, footprinting in binding buffer, DNase I 1 min …

Substance: CGCCTCGCCGACCGGCACGTGGAGGGCCTGTTGGCGGAGGCCCTGGCCCACGCGGAAGAAAACACTTGACCAGTTGCTCAAATGATGCTACCCTGGGGGCATGAAGGCTCCCAGAGTGCGCGTCTTCCGGGTAGAGGGCATGG (double strand) [0354p (TTC0354 promoter)]
- Kd [1]: 1.4 µM
- binding [2]: binds
- binding [3]: binds

Substance: AGAGGACGAGGACCCGCATCCTCCAAAGCCTAGCCCCCCTTCGGTCAGGGGGAGATCATGCGCTCAAGCTGGGCCACC (double strand) [TtarsCp (TtarsC promoter)]
- binding [1]: binds

Substance: CTCCTTGACCACCCTCTCCTCGGGCAGGGCGGCCCGGGCCTTCTCCACCCTTTCCGGGTGGATCTCGTAGACCCCGCAGACCGCCCTACCAGCCCCGCTTGGCAAGCCTTTCCTCCTCCTTGAGCTGGTCCAGGTTGATGCCCACCATG (double strand) [TtsmtBp (TtsmtB promoter)]
- Kd [1]: 5 µM

Substance: 0354p (TTC0354 promoter)
- Kd ([4]; apparent, Hill fit): 1.4 µM

Substance: TtsmtBp (TtsmtB promoter)
- Kd ([4]; multiple complexes): 5 µM
